According to US8530168B2, “Fusion protein comprising a Caspase domain and a nuclear hormone receptor binding domain and methods and uses thereof” (Helmholtz Zentrum Munich Deutsches Forschungszentrum fuer …, priority 2007, dated 2013):
Entries after “also recorded” stand apart in the source; their conditions may differ.

Experiments:
Assay type in all cases: cell-based, mouse
MEF5/N9 cells [1] = test: MTT cytotoxicity assay of stably transfected MEF5/N9 clones; details: 10^−8 M 4-OH-tamoxifen, 48 h
Procedure: (§1) To generate stably transfected MEF5/N9 cells, 2·10^6 cells were coelectroporated with 32 μg ER(T2) fusion plasmid DNA linearised with ScaI and 8 μg pPgk-hygro-pA plasmid DNA linearised with XhoI and plated into two 96-well plates. The cells were grown in DMEM medium (Invitrogen) supplemented with 2 mM Glutamine and 10% fetal calf serum at 37° C., 5% CO2 in humid atmosphere, and passaged upon trypsinization. Two days after transfection the medium was supplemented with 250 U/ml of hygromycin (Calbiochem) for the selection of stable integrants. Upon the growth of resistant colonies these were individually expanded in the presence of hygromycin.
To quantify 4-OH-tamoxifen-inducible cell death, we applied the colorimetric MTT assay (Mossman, J. Immunol. Methods, 65, 55 (1983)) allowing the quantification of cell survival. Cells (4·10^3) were plated on 96-well plates. The assay was carried out in three replicas for each sample treated with and without 4-OH-tamoxifen. After 12 h, medium was replaced either with fresh medium or with medium supplemented with 10^−8 M 4-OH-tamoxifen. Following 48 h of 4-OH-tamoxifen treatment, sterile filtered MTT reagent in PBS (Sigma) was added at the concentration of 0.5 mg/ml. Incubation occurred for 4 hours at 37° C. With ongoing reaction time, dark violet MTT formazan crystals appeared on the bottom of the wells containing living cells. The crystals were dissolved in 150 μl 0.04 N HCl/isopropanol to give a homogeneous blue solution suitable for absorbance measurement at a wavelength of 570 nm on the Synergy™ HT Multi-Detection Microplate Reader (BioTek).

MEF5/N9 cells [2] = test: Transient cotransfection of ER(T2) fusion expression vectors with β-galactosidase reporter; β-galactosidase activity in lysates; details: 10^−8 M 4-OH-tamoxifen, 48 h
Procedure: The transformed mouse embryonic fibroblast cell line MEF5/N9 (Schwenk et al., Nucleic Acids Research, 26(6) 1427-1432 (1998)) was obtained from Michel Aguet (University of Zurich, Switzerland). The cells were grown in DMEM medium (Life Technologies) supplemented with 2 mM […] and 10% fetal calf serum at 37° C., 5% CO2 in humid atmosphere and passaged upon trypsinization. One day before transient transfection 4·10^4 cells were plated into a 24-well plate (Falcon). For the transient transfection of MEF5/N9 cells with plasmids, each well received into 500 μl of medium a total amount of 150 ng or 200 ng supercoiled plasmid DNA complexed before with the FuGene6 transfection reagent (Roche Diagnostics GmbH, Mannheim, Germany) according to the manufacturer's protocol. Each 150 ng or 200 ng DNA preparation (FIG. 2 sample 1 to 11) contained 100 ng of the β-Galactosidase expression vector pCMV-β-gal-pA (pCMVβ, Clontech, FIG. 1G, SEQ ID NO: 56), and 100 ng of the fusion ER(T2) expression vectors to be tested (FIG. 2 sample 3-7, 10-11) and the control plasmids (FIG. 2 sample 1-3), except for the samples with the plasmids pCAG-Casp9full-ER(T2)-bpA (FIG. 2 sample 8) and pCAG-Casp9trunc-ER(T2)-bpA (FIG. 2 sample 9), respectively, that received 50 ng of the test vector. For each sample to be tested four individual wells were transfected. Five hours after the addition of the DNA preparations each well received additional 500 μl of growth medium. The following day, the medium of two wells of each sample was replaced by fresh medium. The other two wells received medium containing 10^−8 M 4-hydroxy-tamoxifen (Sigma). 48 hours after induction with 4-OH-tamoxifen, the cells of each well were lysed with 200 μl lysate reagent supplemented with protease inhibitors (Roche Diagnostics GmbH). The lysates were centrifuged and 50 μl were used to determine the β-galactosidase activities using the β-galactosidase reporter gene assay (Roche Diagnostics GmbH) according to the manufacturer's protocol in a microplate luminometer (Berthold Detection Systems GmbH). The mean value and standard deviation of the samples was calculated from the β-galactosidase RLU values obtained from the two transfected wells of each sample. The relative β-galactosidase activity was obtained by comparison to the negative control (pCAG-Cre-ER(T2)-bpA) without 4-OH-tamoxifen.
To investigate the cell death effect of the different ER(T2) fusion constructs quantitatively, we performed transient cotransfections of the ER(T2) fusion protein expression vectors together with a fixed amount of a reporter plasmid coding for β-galactosidase in MEF5/N9 fibroblast cells. Transfected cells were treated 12 hours after transfection with 4-OH-tamoxifen at a concentration of 10^−8 M. Following 48 hours of 4-OH-tamoxifen induction, the cells from the various samples were lysed and the activity of β-galactosidase in the lysates was determined by a chemiluminescence assay and expressed in “Relative Light Units” (RLU) (FIG. 2). As positive controls for 4-OH-tamoxifen-inducible cell death, we prepared samples transfected with the constructs pCAG-HAFas-ER(T2) or pCAG-MFas-ER(T2) together with the reporter plasmid and treatment with 4-OH-tamoxifen. As negative control for this assay served samples which received the reporter plasmid together with the expression vector pCAG-Cre-ER(T2) and that were treated with 4-OH-tamoxifen.
To determine the relative activity of the tested ER(T2) fusion constructs inducing apoptosis in the presence of 4-OH-tamoxifen, the RLU values of β-galactosidase activity were divided individually for each sample by the RLU value obtained from the sample which received the plasmid pCAG-Cre-ER(T2) but was not treated with 4-OH-tamoxifen (defined as negative control). The relative activity of the tested Caspase- or bax-ER(T2) fusion proteins was then compared to the negative control for 4-OH-tamoxifen-dependent cell death defined as an activity of 1.

MEF5/N9 cells [3] = test: Visible phenotypic changes / viability of stably transfected MEF5/N9 clones on 4-OH-tamoxifen treatment; details: 10^−8 M 4-OH-tamoxifen, 24 h
Procedure: as §1
To examine 4-OH-tamoxifen-dependent cell death, 1·10^5 MEF5/N9 cells expressing ER(T2) fusion proteins were plated into each well of a six-well plate. The following day, for each sample the medium in two of four individual wells were replaced with medium supplemented with 10^−8 M 4-hydroxy-tamoxifen. 24 hours after induction with 4-OH-tamoxifen, cells were photographed through a Leica DMI6000B fluorescence microscope with phase contrast either at 10-fold or 20-fold magnification.
Since the responsiveness of the clones, transfected with the same construct, to 4-OH-tamoxifen differed only slightly from each other, only the results obtained from one clone for each construct are shown in the figure.

MEF5/N9 cells [4] = test: Transient cotransfection of ER(T2) fusion expression vectors with β-galactosidase reporter; β-galactosidase activity in lysates; details: no 4-OH-tamoxifen; transient transfection 50 or 100 ng vector; relative to Cre-ER(T2) without 4-OH-tamoxifen

ER(T2)-Bax: spaceless C-terminal fusion of murine Bax to ER(T2), SEQ ID NO: 55; used as negative control in stable clones
cell viability in the presence of 4-OH-tamoxifen (MTT) (MEF5/N9 cells [1]): not affected by treatment with 4-OH-tamoxifen | 4-OH-tamoxifen-dependent activity / toxicity in transient transfection (in words) (MEF5/N9 cells [2]): no tamoxifen-dependent activity; also recorded: neither the N-terminal nor the C-terminal fusion of Bax to ER(T2) displayed any activity | 4-OH-tamoxifen-dependent cell death, phenotype of stable clones (MEF5/N9 cells [3]): did not respond to 4-OH-tamoxifen | 4-OH-tamoxifen-dependent cell death, phenotype of stable clones (MEF5/N9 cells [3]; listed as ERBax): not affected by the treatment with 4-OH-tamoxifen | basal toxicity: relative β-galactosidase activity compared to the negative control in absence of 4-OH-tamoxifen (MEF5/N9 cells [4]): 84%

Bax-ER(T2): N-terminal fusion of full length murine Bax to ER(T2) ligand binding domain, SEQ ID NO: 48
4-OH-tamoxifen-dependent activity / toxicity in transient transfection (in words) (MEF5/N9 cells [2]): neither the N-terminal nor the C-terminal fusion of Bax to ER(T2) displayed any activity | basal toxicity: relative β-galactosidase activity compared to the negative control in absence of 4-OH-tamoxifen (MEF5/N9 cells [4]): 100%

B1: Casp3-ED4ER(T2): full length murine Caspase-3 fused directly to N-terminal shortened ER(T2) domain, SEQ ID NO: 41 (protein)
chain: MENNKTSVDSKSINNFEVKTIHGSKSVDSGIYLDSSYKMDYPEMGICIIINNKNFHKSTGMSSRSGTDVDAANLRETFMGLKYQVRNKNDLTREDILELMDSVSKEDHSKRSSFVCVILSHGDEGVIYGTNGPVELKKLTSFFRGDYCRSLTGKPKLFIIQACRGTELDCGIETDSGTDEEMACQKIPVEADFLYAYSTAPGYYSWRNSKDGSWFIQSLCSMLKLYAHKLEFMHILTRVNRKVATEFESFSLDSTFHAKKQIPCIVSMLTKELYFYHLESLALSLTADQMVSALLDAEPPILYSEYDPTRPFSEASMMGLLTNLADRELVHMINWAKRVPGFVDLTLHDQVHLLECAWLEILMIGLVWRSMEHPVKLLFAPNLLLDRNQGKCVEGMVEIFDMLLATSSRFRMMNLQGEEFVCLKSIILLNSGVYTFLSSTLKSLEEKDHIHRVLDKITDTLIHLMAKAGLTLQQQHQRLAQLLLILSHIRHMSNKGMEHLYSMKCKNVVPLYDLLLEAADAHRLHAPTSRGGASVEETDQSHLATAGSTSSHSLQKYYITGEAEGFPATA
modifications: fusion gene Casp3-ED4ER(T2)
4-OH-tamoxifen-dependent activity / toxicity in transient transfection (in words) (MEF5/N9 cells [2]): could not be regulated in presence of 4-OH-tamoxifen | basal toxicity: relative β-galactosidase activity compared to the negative control in absence of 4-OH-tamoxifen (MEF5/N9 cells [4]): 52%

B2: Casp9trunc-ER(T2): truncated murine Caspase-9 without CARD domain fused to ER(T2) ligand binding domain, SEQ ID NO: 32 (protein)
chain: MGRQAAKQDPEAVKPLDHLVPVVLGPMGLTAKEQRVVKLDPSQPAVGNLTPVVLGPEELWPARLKPEVLRPETPRPVDIGSGGAHDVCVPGKIRGHADMAYTLDSDPCGHCLIINNVNFCPSSGLGTRTGSNLDRDKLEHRFRWLRFMVEVKNDLTAKKMVTALMEMAHRNHRALDCFVVVILSHGCQASHLQFPGAVYGTDGCSVSIEKIVNIFNGSGCPSLGGKPKLFFIQACGGEQKDHGFEVACTSSQGRTLDSDSEPDAVPYQEGPRPLDQLDAVSSLPTPSDILVSYSTFPGFVSWRDKKSGSWYIETLDGILEQWARSEDLQSLLLRVANAVSAKGTYKQIPGCFNFLRKKLFFKTSVEPSAGDMRAANLWPSPLMIKRSKKNSLALSLTADQMVSALLDAEPPILYSEYDPTRPFSEASMMGLLTNLADRELVHMINWAKRVPGFVDLTLHDQVHLLECAWLEILMIGLVWRSMEHPVKLLFAPNLLLDRNQGKCVEGMVEIFDMLLATSSRFRMMNLQGEEFVCLKSIILLNSGVYTFLSSTLKSLEEKDHIHRVLDKITDTLIHLMAKAGLTLQQQHQRLAQLLLILSHIRHMSNKGMEHLYSMKCKNVVPLYDLLLEAADAHRLHAPTSRGGASVEETDQSHLATAGSTSSHSLQKYYITGEAEGFPATA
modifications: fusion protein Casp9trunc-ER(T2)
relative β-galactosidase activity in presence of 4-OH-tamoxifen compared to the negative control (MEF5/N9 cells [2]; relative to Cre-ER(T2) without 4-OH-tamoxifen): 22% | 4-OH-tamoxifen-dependent cell death, phenotype of stable clones (MEF5/N9 cells [3]): weaker susceptibility to 4-OH-tamoxifen | 4-OH-tamoxifen-dependent cell death, phenotype of stable clones (MEF5/N9 cells [3]; listed as Casp9truncER): substantial cell death | basal toxicity: relative β-galactosidase activity compared to the negative control in absence of 4-OH-tamoxifen (MEF5/N9 cells [4]): 70%
